Measurements taken from US20120142103A1, “METHOD FOR INDUCING DIFFERENTIATION INTO EPITHELIAL PROGENITOR CELL/STEM CELL POPULATION AND CORNEAL EPITHELIAL CELL POPULATION FROM INDUCED PLURIPOTENT STEM CELLS” (priority 2010, published 2012).

System: mouse iPS cells
Experiment: Modified KCM method: differentiation of mouse iPS cells on collagen into epithelial progenitor/stem cells (immunostaining, flow cytometry of keratin 14-positive cells)
Assay type: cell-based
Experimental: The iPS cells on the SNL feeders were collected by treatment with 0.25% trypsin/EDTA and further pipetted to prepare an iPS cell suspension (single cell suspension). The obtained cell suspension was incubated on a gelatin-coated culture dish for approximately 1 to 2 hours. The supernatant was collected to thereby allow only the feeder cells to adhere to the dish and collect only the iPS cells. The number of the obtained iPS cells was counted. The iPS cells were inoculated at a density of 0.5 to 10×10^3 cells/cm^2 onto a type IV collagen-coated culture dish as described below and cultured at 37° C. for 7 to 28 days in a 5% CO2 atmosphere using a KCM medium shown below. 0.5 nM BMP4, (R&D System) was further added to the KCM medium, and the cells were cultured in the same way as above.
The cells after differentiation induction were examined for the expressions of a basal epithelial cell marker keratin 14, an epithelial progenitor cell/stem cell marker p63, and a corneal epithelial differentiation marker keratin 12 by an immunostaining method. Moreover, keratin 14-positive cells were analyzed by flow cytometry. The immunostaining method and the flow cytometry analysis will be shown in detail below.
After fixation in cold methanol (−30° C./20 min), 5% NST was added to the cells, which were then left at room temperature for 30 minutes for blocking. […]

B1: BMP4: Bone Morphogenetic Protein 4, one of bone morphogenetic factors, belongs to the transforming growth factor-β (TGF-β) superfamily (protein, UniProt P12644 293-408, looked up)
Bone morphogenetic protein 4: SPKHHSQRARKKNKNCRRHSLYVDFSDVGWNDWIVAPPGYQAFYCHGDCPFPLADHLNSTNHAIVQTLVNSVNSSIPKACCVPTELSAISMLYLDEYDKVVLKNYQEMVVEGCGCR
Question: With B1 as the molecule, how does the “induction efficiency of differentiation (keratin 14-positive cells, flow cytometry)” value (0.5 nM BMP4 added to KCM medium, day 28, 2.9% without BMP4) read?
Answer: 6.0%

Question: And the “epithelial induction efficiency (keratin 14-positive and p63-positive cells, immunostaining)” value (BMP4 added to KCM medium, day 28)?
Answer: significantly increased epithelial induction efficiency
